# Measurements reported in patent US12630600B2 (MEDIMMUNE LIMITED, priority 2022, dated 2026).
# Starred links: 1 amine or outer side, 2 acyl side, 3 side chain; linkers in the order of their positions; H or OH if unused. Non-standard residues stand in square brackets, D forms with d. Groups on a side chain read outwards from the residue. Primed or numbered codes have the meaning given here. No end group written: not given here. *: point of attachment. PEG12 = NCCOCCOCCOCCOCCOCCOCCOCCOCCOCCOCCOCCOCCC(=O)O; C18 diacid = O=C(O)CCCCCCCCCCCCCCCCC(=O)*; Dip = N[C@H](C(=O)O)C(c1ccccc1)c1ccccc1; Heptadecanoyl = CCCCCCCCCCCCCCCCC(=O)*; γGlu = O=C(O)[C@H](CCC(=O)[*:2])N[*:1]; Stearoyl = CCCCCCCCCCCCCCCCCC(=O)*; Palmitoyl = CCCCCCCCCCCCCCCC(=O)*; αMeF = C[C@](N)(Cc1ccccc1)C(=O)O; Myristoyl = CCCCCCCCCCCCCC(=O)*; (PEG)2 = polyethylene glycol 2; PEG2′ = polyethylene glycol 2; PEG4′ = polyethylene glycol; Dodecyl = CCCCCCCCCCCC*; PEG2 = NCCOCCOCCC(=O)O; AEEA = NCCOCCOCC(=O)O; Aib = CC(C)(N)C(=O)O
# B1: Peptide 12 (peptide)
# peptide: H[Aib]HGS[αMeF]TSDVSK[αMeF]LDSK([AEEA-AEEA-γGlu-C18 diacid])AARDFVQ[Aib]IANT-NH2
# modifications: N-terminus assumed
# SMILES: CC[C@H](C)[C@H](NC(=O)C(C)(C)NC(=O)[C@H](CCC(N)=O)NC(=O)[C@@H](NC(=O)[C@H](Cc1ccccc1)NC(=O)[C@H](CC(=O)O)NC(=O)[C@H](CCCNC(=N)N)NC(=O)[C@H](C)NC(=O)[C@H](C)NC(=O)[C@H](CCCCNC(=O)COCCOCCNC(=O)COCCOCCNC(=O)CC[C@H](NC(=O)CCCCCCCCCCCCCCCCC(=O)O)C(=O)O)NC(=O)[C@H](CO)NC(=O)[C@H](CC(=O)O)NC(=O)[C@H](CC(C)C)NC(=O)[C@](C)(Cc1ccccc1)NC(=O)[C@H](CCCCN)NC(=O)[C@H](CO)NC(=O)[C@@H](NC(=O)[C@H](CC(=O)O)NC(=O)[C@H](CO)NC(=O)[C@@H](NC(=O)[C@](C)(Cc1ccccc1)NC(=O)[C@H](CO)NC(=O)CNC(=O)[C@H](Cc1c[nH]cn1)NC(=O)C(C)(C)NC(=O)[C@@H](N)Cc1c[nH]cn1)[C@@H](C)O)C(C)C)C(C)C)C(=O)N[C@@H](C)C(=O)N[C@@H](CC(N)=O)C(=O)N[C@H](C(N)=O)[C@@H](C)O
# B2: Peptide 109 (peptide)
# peptide: HSQGS[αMeF]TSDVSK(Ac)[Aib]LDSK([AEEA-AEEA-γGlu-C18 diacid])AAQD[αMeF]VQ[Aib]IAN-NH2
# modifications: N-terminus assumed
# SMILES: CC[C@H](C)[C@H](NC(=O)C(C)(C)NC(=O)[C@H](CCC(N)=O)NC(=O)[C@@H](NC(=O)[C@](C)(Cc1ccccc1)NC(=O)[C@H](CC(=O)O)NC(=O)[C@H](CCC(N)=O)NC(=O)[C@H](C)NC(=O)[C@H](C)NC(=O)[C@H](CCCCNC(=O)COCCOCCNC(=O)COCCOCCNC(=O)CC[C@H](NC(=O)CCCCCCCCCCCCCCCCC(=O)O)C(=O)O)NC(=O)[C@H](CO)NC(=O)[C@H](CC(=O)O)NC(=O)[C@H](CC(C)C)NC(=O)C(C)(C)NC(=O)[C@H](CCCCNC(C)=O)NC(=O)[C@H](CO)NC(=O)[C@@H](NC(=O)[C@H](CC(=O)O)NC(=O)[C@H](CO)NC(=O)[C@@H](NC(=O)[C@](C)(Cc1ccccc1)NC(=O)[C@H](CO)NC(=O)CNC(=O)[C@H](CCC(N)=O)NC(=O)[C@H](CO)NC(=O)[C@@H](N)Cc1c[nH]cn1)[C@@H](C)O)C(C)C)C(C)C)C(=O)N[C@@H](C)C(=O)N[C@@H](CC(N)=O)C(N)=O
# B3: Peptide 58 (peptide)
# peptide: HSQGS[αMeF]TSDVSK[Dip]LDSK([PEG12-γGlu-γGlu-Stearoyl])AAQD[αMeF]VE[Aib]IINT-NH2
# modifications: N-terminus assumed
# SMILES: CCCCCCCCCCCCCCCCCC(=O)N[C@@H](CCC(=O)N[C@@H](CCC(=O)NCCOCCOCCOCCOCCOCCOCCOCCOCCOCCOCCOCCOCCC(=O)NCCCC[C@H](NC(=O)[C@H](CO)NC(=O)[C@H](CC(=O)O)NC(=O)[C@H](CC(C)C)NC(=O)[C@@H](NC(=O)[C@H](CCCCN)NC(=O)[C@H](CO)NC(=O)[C@@H](NC(=O)[C@H](CC(=O)O)NC(=O)[C@H](CO)NC(=O)[C@@H](NC(=O)[C@](C)(Cc1ccccc1)NC(=O)[C@H](CO)NC(=O)CNC(=O)[C@H](CCC(N)=O)NC(=O)[C@H](CO)NC(=O)[C@@H](N)Cc1c[nH]cn1)[C@@H](C)O)C(C)C)C(c1ccccc1)c1ccccc1)C(=O)N[C@@H](C)C(=O)N[C@@H](C)C(=O)N[C@@H](CCC(N)=O)C(=O)N[C@@H](CC(=O)O)C(=O)N[C@@](C)(Cc1ccccc1)C(=O)N[C@H](C(=O)N[C@@H](CCC(=O)O)C(=O)NC(C)(C)C(=O)N[C@H](C(=O)N[C@H](C(=O)N[C@@H](CC(N)=O)C(=O)N[C@H](C(N)=O)[C@@H](C)O)[C@@H](C)CC)[C@@H](C)CC)C(C)C)C(=O)O)C(=O)O
# B4: Peptide 7 (peptide)
# peptide: H[Aib]HGS[αMeF]TSDVSK[αMeF]LDSK([γGlu-C18 diacid])AAQD[αMeF]VEWIANT-NH2
# modifications: N-terminus assumed
# SMILES: CC[C@H](C)[C@H](NC(=O)[C@H](Cc1c[nH]c2ccccc12)NC(=O)[C@H](CCC(=O)O)NC(=O)[C@@H](NC(=O)[C@](C)(Cc1ccccc1)NC(=O)[C@H](CC(=O)O)NC(=O)[C@H](CCC(N)=O)NC(=O)[C@H](C)NC(=O)[C@H](C)NC(=O)[C@H](CCCCNC(=O)CC[C@H](NC(=O)CCCCCCCCCCCCCCCCC(=O)O)C(=O)O)NC(=O)[C@H](CO)NC(=O)[C@H](CC(=O)O)NC(=O)[C@H](CC(C)C)NC(=O)[C@](C)(Cc1ccccc1)NC(=O)[C@H](CCCCN)NC(=O)[C@H](CO)NC(=O)[C@@H](NC(=O)[C@H](CC(=O)O)NC(=O)[C@H](CO)NC(=O)[C@@H](NC(=O)[C@](C)(Cc1ccccc1)NC(=O)[C@H](CO)NC(=O)CNC(=O)[C@H](Cc1c[nH]cn1)NC(=O)C(C)(C)NC(=O)[C@@H](N)Cc1c[nH]cn1)[C@@H](C)O)C(C)C)C(C)C)C(=O)N[C@@H](C)C(=O)N[C@@H](CC(N)=O)C(=O)N[C@H](C(N)=O)[C@@H](C)O
# Molecular target: human glucagon receptor (human, UniProt P47871)
# Assay: cell-based or functional assay
row,Binder,"cAMP production, hGluc-R EC50 (pM)"
1,HSQGS[αMeF]TSDVSK[Aib]LDSK([(PEG)2-(PEG)2-γGlu-γGlu-Stearoyl])AAQD[αMeF]VQ[Aib]IAN-NH2 [Peptide 100],40.5
2,HSQGS[αMeF]TSDVSK[Dip]LDSK([(PEG)2-(PEG)2-γGlu-γGlu-Dodecyl])AAQD[αMeF]VE[Aib]IINT-NH2 [Peptide 62],15.2
3,HSQGS[αMeF]TSDVSK[Aib]LDSK([(PEG)2-(PEG)2-γGlu-γGlu-Palmitoyl])AAQD[αMeF]VQ[Aib]IIE-NH2 [Peptide 99],33.2
4,HSQGS[αMeF]TSDVSK[αMeF]LDSK([PEG2′-PEG2′-γGlu-γGlu-Palmitoyl])AAQD[αMeF]VQ[Aib]IAN-NH2 (not fully specified) [Peptide 89],15.3
5,B1,47.7
6,B2,> 26800
7,B3,11.3
8,HSQGS[αMeF]TSDVSK[Dip]LDSK([(PEG)2-γGlu-(PEG)2-γGlu-Stearoyl])AAQD[αMeF]VE[Aib]IINT-NH2 [Peptide 61],9.55
9,HSQGS[αMeF]TSDVSK[Dip]LDSK([PEG2′-PEG2′-γGlu-γGlu-Palmitoyl])AAQD[αMeF]VE[Aib]IINT-NH2 [Peptide 64],3.06
10,HSQGS[αMeF]TSDVSK[αMeF]LDSKAAQD[αMeF]VQ[Aib]LEAGG-NH2 (not fully specified (residue 17)) [Peptide 80],9.18
11,HSQGS[αMeF]TSDVSK[αMeF]LDSK([(PEG)2-(PEG)2-γGlu-γGlu-Palmitoyl])AAQD[αMeF]VQ[Aib]IAN-NH2 [Peptide 87],8.46
12,B4,30.7
13,H[Aib]QGS[αMeF]TSDVSK[αMeF]LDSK([PEG4′-γGlu-γGlu-Palmitoyl])AAQD[αMeF]VE[Aib]LEAGG-NH2 [Peptide 72],73.7
14,H[Aib]HGS[αMeF]TSDVSK[αMeF]LDSK([AEEA-AEEA-γGlu-C18 diacid])AAQDFVQ[Aib]IANT-NH2 [Peptide 11],118
15,HSQGS[αMeF]TSDVSK[Dip]LDSK([γGlu-γGlu-(PEG)2-(PEG)2-Stearoyl])AAQD[αMeF]VE[Aib]IINT-NH2 [Peptide 59],28.4
16,HSQGS[αMeF]TSDVSK[Dip]LDSK([PEG2-PEG2-γGlu-γGlu-C18 diacid])AAQD[αMeF]VE[Aib]IINT-NH2 [Peptide 65],2060
17,H[Aib]QGS[αMeF]TSDVSK[Dip]LDSK([PEG2′-PEG2′-γGlu-Palmitoyl])AAQD[αMeF]VQ[Aib]IAN-NH2 [Peptide 67],9.49
18,HSQGS[αMeF]TSDVSK[Dip]LDSK([γGlu-(PEG)2-γGlu-(PEG)2-Stearoyl])AAQD[αMeF]VE[Aib]IINT-NH2 [Peptide 60],21.1
19,HSQGS[αMeF]TSDVSK[αMeF]LDSK([PEG2′-PEG2′-γGlu-γGlu-Palmitoyl])AAQD[αMeF]VQ[Aib]LEAGG-NH2 [Peptide 79],10.7
20,HSQGS[αMeF]TSDVSK[αMeF]LDSK([(PEG)2-(PEG)2-γGlu-γGlu-Heptadecanoyl])AAQD[αMeF]VQ[Aib]IAN-NH2 [Peptide 88],6.47
21,HSQGS[αMeF]TSDVSK[Dip]LDSK([(PEG)2-(PEG)2-γGlu-γGlu-Myristoyl])AAQD[αMeF]VE[Aib]IINT-NH2 [Peptide 63],2.49

# Molecular target: human GLP-1 receptor (human, UniProt P43220)
# Assay: cell-based or functional assay
row,Binder,"cAMP production, hGLP-1R EC50 (pM)"
1,HSQGS[αMeF]TSDVSK[Aib]LDSK([(PEG)2-(PEG)2-γGlu-γGlu-Stearoyl])AAQD[αMeF]VQ[Aib]IAN-NH2 [Peptide 100],0.258
2,HSQGS[αMeF]TSDVSK[Dip]LDSK([(PEG)2-(PEG)2-γGlu-γGlu-Dodecyl])AAQD[αMeF]VE[Aib]IINT-NH2 [Peptide 62],10.1
3,HSQGS[αMeF]TSDVSK[Aib]LDSK([(PEG)2-(PEG)2-γGlu-γGlu-Palmitoyl])AAQD[αMeF]VQ[Aib]IIE-NH2 [Peptide 99],2.21
4,HSQGS[αMeF]TSDVSK[αMeF]LDSK([PEG2′-PEG2′-γGlu-γGlu-Palmitoyl])AAQD[αMeF]VQ[Aib]IAN-NH2 (not fully specified) [Peptide 89],3.77
5,B1,14.5
6,B2,698
7,B3,3.9
8,HSQGS[αMeF]TSDVSK[Dip]LDSK([(PEG)2-γGlu-(PEG)2-γGlu-Stearoyl])AAQD[αMeF]VE[Aib]IINT-NH2 [Peptide 61],4.12
9,HSQGS[αMeF]TSDVSK[Dip]LDSK([PEG2′-PEG2′-γGlu-γGlu-Palmitoyl])AAQD[αMeF]VE[Aib]IINT-NH2 [Peptide 64],2.57
10,HSQGS[αMeF]TSDVSK[αMeF]LDSKAAQD[αMeF]VQ[Aib]LEAGG-NH2 (not fully specified (residue 17)) [Peptide 80],1.03
11,HSQGS[αMeF]TSDVSK[αMeF]LDSK([(PEG)2-(PEG)2-γGlu-γGlu-Palmitoyl])AAQD[αMeF]VQ[Aib]IAN-NH2 [Peptide 87],1.29
12,B4,84.6
13,H[Aib]QGS[αMeF]TSDVSK[αMeF]LDSK([PEG4′-γGlu-γGlu-Palmitoyl])AAQD[αMeF]VE[Aib]LEAGG-NH2 [Peptide 72],3.42
14,H[Aib]HGS[αMeF]TSDVSK[αMeF]LDSK([AEEA-AEEA-γGlu-C18 diacid])AAQDFVQ[Aib]IANT-NH2 [Peptide 11],157
15,HSQGS[αMeF]TSDVSK[Dip]LDSK([γGlu-γGlu-(PEG)2-(PEG)2-Stearoyl])AAQD[αMeF]VE[Aib]IINT-NH2 [Peptide 59],6.18
16,HSQGS[αMeF]TSDVSK[Dip]LDSK([PEG2-PEG2-γGlu-γGlu-C18 diacid])AAQD[αMeF]VE[Aib]IINT-NH2 [Peptide 65],1230
17,H[Aib]QGS[αMeF]TSDVSK[Dip]LDSK([PEG2′-PEG2′-γGlu-Palmitoyl])AAQD[αMeF]VQ[Aib]IAN-NH2 [Peptide 67],2.43
18,HSQGS[αMeF]TSDVSK[Dip]LDSK([γGlu-(PEG)2-γGlu-(PEG)2-Stearoyl])AAQD[αMeF]VE[Aib]IINT-NH2 [Peptide 60],5.16
19,HSQGS[αMeF]TSDVSK[αMeF]LDSK([PEG2′-PEG2′-γGlu-γGlu-Palmitoyl])AAQD[αMeF]VQ[Aib]LEAGG-NH2 [Peptide 79],1.73
20,HSQGS[αMeF]TSDVSK[αMeF]LDSK([(PEG)2-(PEG)2-γGlu-γGlu-Heptadecanoyl])AAQD[αMeF]VQ[Aib]IAN-NH2 [Peptide 88],1.04
21,HSQGS[αMeF]TSDVSK[Dip]LDSK([(PEG)2-(PEG)2-γGlu-γGlu-Myristoyl])AAQD[αMeF]VE[Aib]IINT-NH2 [Peptide 63],3.14
